# From IntAct's records for PubMed 12163175
# B1: Protein ROD1 (Saccharomyces cerevisiae), Q02805 (parent)
# chain: MFSSSSRPSKEPLLFDIRLRNLDNDVLLIKGPPDEASSVLLSGTIVLSITEPIQIKSLALRLFGRLRLNIPTVLQTVHGPHKRYSKFERNIYSHFWDDFNIKSYFQNLYDNHNNGKITISSKSSTNLAALPKRKRALSTASLISSNGQTSASKNYHTLVKGNYEFPFSAIIPGSLVESVEGLPNAAVTYALEATIERPKQPDLICKKHLRVIRTLAIDAVELSETVSVDNSWPEKVDYTISIPTKAIAIGSSTMINILIVPILKGLKLGPVRISLVENSQYCGSYGGVINQERMVAKLKLKDPLKHVAQIKKKRSLNEAADEGVDTDTGEFQDKWEVRALLNIPASLTKCSQDCRILSNIKVRHKIKFTISLLNPDGHISELRAALPVQLFISPFVPVNVKTSDVIERTLKTFGPSYQVTSQHDNSFSSKNFVDDSEEDVIFQRSASALQLSSMPTIVSGSTLNINSTDAEATAVADTTMVTSLMVPPNYGNHVYDRVYGEVTNEDETSASASSSAVESQAIHNIQNLYISDSNNSNNPILAPNPQIKIEDDSLNNCDSRGDSVNNSNLNLVNSNLTISENWNNNSPSANRYNNIINAGLNSPSLTPSFAHLSRRNSYSRQTSSTSLKNDLELTDLSRVPSYDKAMKSDMIGEDLPPAYPEEELGVQENKKIELERPQILHHKSTSSLLPLPGSSKSSNNLKRSSSRTHLSHSPLPRNNSGSSVSLQQLARNNTDSSFNLNLSFTSAKSSTGSRHFPFNMTTSFTSNSSSKNNSHFDKTDSTSDANKPREEENYTSATHNRRSRSSSVRSNNSNSPLRQGTGSFANLMEMFTKRDRS
# B2: Protein ROG3 (Saccharomyces cerevisiae), P43602 (parent)
# chain: MGFSSGKSTKKKPLLFDIRLKNVDNDVILLKGPPNEAPSVLLSGCIVLSINEPMQIKSISLRLYGKIQIDVPLERPQDASSSSLSSSPPKIRKYNKVFYNYAWDNVNLKEYLSGLRGQSGLAGSSSSSNILGTRQRAQSTSSLKSLKGSSSPSSCTLDKGNYDFPFSAILPGSLPESVESLPNCFVTYSMESVIERSKNYSDLICRKNIRVLRTISPAAVELSETVCVDNSWPDKVDYSISVPNKAVAIGSATPINISIVPLSKGLKLGSIKVVLFENYQYCDPFPPVISENRQVTELNLEDPLNESSGEFNGNGCFVNNPFFQPDHSFQDKWEIDTILQIPNSLSNCVQDCDVRSNIKVRHKLKFFIILINPDGHKSELRASLPIQLFISPFVALSIKPLSSSNLYSLFSTTNQKDENSSQEEEEEYLFSRSASVTGLELLADMRSGGSVPTISDLMTPPNYEMHVYDRLYSGSFTRTAVETSGTCTPLGSECSTVEDQQQDLEDLRIRLTKIRNQRDNLGLPPSASSAAASRSLSPLLNVPAPEDGTERILPQSALGPNSGSVPGVHSNVSPVLLSRSPAPSVSAHEVLPVPSGLNYPETQNLNKVPSYGKAMKYDIIGEDLPPSYPCAIQNVQPRKPSRVHSRNSSTTLSSSIPTSFHSSSFMSSTASPISIINGSRSSSSGVSLNTLNELTSKTSNNPSSNSMKRSPTRRRATSLAGFMGGFLSKGNKR
# Variants of: B1
# Details: with rsp5_yeast RSP5, P39940
row,Variant,effect of a mutation on the interaction
1,P487Q;P488A,disrupting interaction

# Variants of: B2
# Details: with rsp5_yeast RSP5, P39940
# Target sequence in this assay (P39940 whole entry): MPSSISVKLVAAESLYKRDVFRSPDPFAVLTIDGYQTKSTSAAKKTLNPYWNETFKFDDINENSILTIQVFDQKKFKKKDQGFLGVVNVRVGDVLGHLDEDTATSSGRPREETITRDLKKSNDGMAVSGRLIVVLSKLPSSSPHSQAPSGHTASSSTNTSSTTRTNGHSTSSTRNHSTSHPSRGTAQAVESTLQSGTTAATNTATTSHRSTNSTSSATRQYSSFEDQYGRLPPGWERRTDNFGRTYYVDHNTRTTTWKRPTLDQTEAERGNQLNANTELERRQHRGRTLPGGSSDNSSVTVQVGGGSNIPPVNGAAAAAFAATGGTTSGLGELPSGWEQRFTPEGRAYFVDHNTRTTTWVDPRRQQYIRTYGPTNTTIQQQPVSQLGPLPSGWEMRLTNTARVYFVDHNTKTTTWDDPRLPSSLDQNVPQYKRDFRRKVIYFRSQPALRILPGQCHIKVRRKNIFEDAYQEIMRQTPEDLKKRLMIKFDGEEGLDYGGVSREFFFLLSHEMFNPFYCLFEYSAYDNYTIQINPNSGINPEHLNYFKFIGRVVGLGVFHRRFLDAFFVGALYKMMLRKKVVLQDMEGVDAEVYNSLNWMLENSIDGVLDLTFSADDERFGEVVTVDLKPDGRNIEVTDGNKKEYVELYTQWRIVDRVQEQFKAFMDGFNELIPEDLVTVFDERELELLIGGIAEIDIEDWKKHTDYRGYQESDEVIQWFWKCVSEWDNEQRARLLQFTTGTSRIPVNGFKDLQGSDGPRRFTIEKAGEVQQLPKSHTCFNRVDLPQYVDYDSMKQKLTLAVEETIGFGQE
row,Variant,effect of a mutation on the interaction
1,C487Q;T488A,disrupting interaction
